Experimental data taken from US20160347808A1 (IMMATICS BIOTECHNOLOGIES, published 2016).
Square brackets hold non-standard residues; d marks the D form. Ends that are not written are not given here. pS = N[C@@H](COP(=O)(O)O)C(=O)O

B1: peptide KMSEKILLL (SEQ ID NO 186) (peptide)
peptide: KMSEKILLL
B2: peptide RLYTKLLNEA (SEQ ID NO 19) (peptide)
peptide: RLYTKLLNEA
B3: peptide RLLDFPEAMVL (SEQ ID NO 165) (peptide)
peptide: RLLDFPEAMVL
B4: peptide GLIDEVMVL (SEQ ID NO 22) (peptide)
peptide: GLIDEVMVL
notes: also called CYP2W1-001
B5: peptide SLLDENNVSSYL (SEQ ID NO 184) (peptide)
peptide: SLLDENNVSSYL
B6: peptide GLSSAYGGL (SEQ ID NO 30) (peptide)
peptide: GLSSAYGGL
B7: peptide GLLESPSIFNFTA (SEQ ID NO 36) (peptide)
peptide: GLLESPSIFNFTA
B8: peptide GLFAGLGGAGA (SEQ ID NO 37) (peptide)
peptide: GLFAGLGGAGA
B9: peptide ALTEIQEFI (SEQ ID NO 28) (peptide)
peptide: ALTEIQEFI
B10: peptide GLHNVVYGI (SEQ ID NO 187) (peptide)
peptide: GLHNVVYGI
B11: peptide RLAELTVDEFL (SEQ ID NO 4) (peptide)
peptide: RLAELTVDEFL
B12: peptide YLAHFIEGL (SEQ ID NO 169) (peptide)
peptide: YLAHFIEGL
B13: peptide SLADRLIGV (SEQ ID NO 25) (peptide)
peptide: SLADRLIGV
B14: peptide ALDSSNSMQTI (SEQ ID NO 52) (peptide)
peptide: ALDSSNSMQTI
B15: peptide RTLDKVLEV (SEQ ID NO 176) (peptide)
peptide: RTLDKVLEV
B16: peptide TLQEVVTGV (SEQ ID NO 183) (peptide)
peptide: TLQEVVTGV
B17: peptide TLLGGKEAQALGV (SEQ ID NO 175) (peptide)
peptide: TLLGGKEAQALGV
B18: peptide SLESKLTSV (SEQ ID NO 44) (peptide)
peptide: SLESKLTSV
B19: peptide SILDDSFKL (SEQ ID NO 42) (peptide)
peptide: SILDDSFKL
B20: peptide RLIPDTLYSV (SEQ ID NO 3) (peptide)
peptide: RLIPDTLYSV
B21: peptide TLMAEMHVV (SEQ ID NO 50) (peptide)
peptide: TLMAEMHVV
B22: peptide ALAELLHGA (SEQ ID NO 45) (peptide)
peptide: ALAELLHGA
B23: peptide SLAPTPVSA (SEQ ID NO 38) (peptide)
peptide: SLAPTPVSA
B24: peptide NLFDLGGQYLRV (SEQ ID NO 181) (peptide)
peptide: NLFDLGGQYLRV
B25: peptide ILDDSFKLL (SEQ ID NO 41) (peptide)
peptide: ILDDSFKLL
B26: peptide ALAGGITMV (SEQ ID NO 170) (peptide)
peptide: ALAGGITMV
B27: peptide ALAAARVEL (SEQ ID NO 17) (peptide)
peptide: ALAAARVEL
B28: peptide GLDDRYSLV (SEQ ID NO 46) (peptide)
peptide: GLDDRYSLV
B29: peptide FLDASDPAL (SEQ ID NO 48) (peptide)
peptide: FLDASDPAL
B30: peptide QMLDVAIRV (SEQ ID NO 29) (peptide)
peptide: QMLDVAIRV
B31: peptide KMLDEILLQL (SEQ ID NO 164) (peptide)
peptide: KMLDEILLQL
B32: peptide YLKDGDVML (SEQ ID NO 20) (peptide)
peptide: YLKDGDVML
B33: peptide ILLDDNMQIRL (SEQ ID NO 174) (peptide)
peptide: ILLDDNMQIRL
B34: peptide AMAEMVLQV (SEQ ID NO 190) (peptide)
peptide: AMAEMVLQV
B35: peptide ALWEKNTHL (SEQ ID NO 33) (peptide)
peptide: ALWEKNTHL
B36: peptide KLNTETFGV (SEQ ID NO 32) (peptide)
peptide: KLNTETFGV
B37: peptide FLVDGPRVQL (SEQ ID NO 188) (peptide)
peptide: FLVDGPRVQL
B38: peptide KLGDLMVLL (SEQ ID NO 173) (peptide)
peptide: KLGDLMVLL
B39: peptide FLSSLKGGLL (SEQ ID NO 18) (peptide)
peptide: FLSSLKGGLL
B40: peptide FLDANGHFV (SEQ ID NO 23) (peptide)
peptide: FLDANGHFV
B41: peptide VLYTGVVRV (SEQ ID NO 185) (peptide)
peptide: VLYTGVVRV
B42: peptide GLASKENFSNVSL (SEQ ID NO 26) (peptide)
peptide: GLASKENFSNVSL
B43: peptide RLQETEGMVAV (SEQ ID NO 171) (peptide)
peptide: RLQETEGMVAV
B44: peptide TLDAAQPRV (SEQ ID NO 43) (peptide)
peptide: TLDAAQPRV
B45: peptide GLLEARGILGL (SEQ ID NO 166) (peptide)
peptide: GLLEARGILGL
B46: peptide GLIRFPLMTI (SEQ ID NO 168) (peptide)
peptide: GLIRFPLMTI
B47: peptide LLYGKYVSV (SEQ ID NO 31) (peptide)
peptide: LLYGKYVSV
B48: peptide ILLEKSVSV (SEQ ID NO 34) (peptide)
peptide: ILLEKSVSV
B49: peptide LLADEDSSYL (SEQ ID NO 27) (peptide)
peptide: LLADEDSSYL
B50: peptide QVWEIQHTV (SEQ ID NO 51) (peptide)
peptide: QVWEIQHTV
B51: peptide YLFREPATI (SEQ ID NO 178) (peptide)
peptide: YLFREPATI
B52: peptide ALLQGAIESV (SEQ ID NO 177) (peptide)
peptide: ALLQGAIESV
B53: peptide VLIDHRWVL (SEQ ID NO 21) (peptide)
peptide: VLIDHRWVL
B54: peptide KLLDLTVRI (SEQ ID NO 35) (peptide)
peptide: KLLDLTVRI
B55: peptide VLDGVLMEL (SEQ ID NO 24) (peptide)
peptide: VLDGVLMEL
B56: peptide ALLPRYFFL (SEQ ID NO 2) (peptide)
peptide: ALLPRYFFL
B57: peptide WLFDDGGLTL (SEQ ID NO 5) (peptide)
peptide: WLFDDGGLTL
B58: peptide SLNKWIFTV (SEQ ID NO 182) (peptide)
peptide: SLNKWIFTV
B59: peptide QLFSEIHNL (SEQ ID NO 191) (peptide)
peptide: QLFSEIHNL
B60: peptide AISEVIGKITA (SEQ ID NO 189) (peptide)
peptide: AISEVIGKITA
B61: peptide LLLDTVTMQV (SEQ ID NO 172) (peptide)
peptide: LLLDTVTMQV
B62: peptide ALSNVIHKV (SEQ ID NO 40) (peptide)
peptide: ALSNVIHKV
B63: peptide SVIDHIHLISV (SEQ ID NO 167) (peptide)
peptide: SVIDHIHLISV
B64: peptide KLYERCEVV (SEQ ID NO 47) (peptide)
peptide: KLYERCEVV
B65: peptide VLVDQSWVL (SEQ ID NO 16) (peptide)
peptide: VLVDQSWVL
B66: peptide RLLJPLSSA (SEQ ID NO 179) (peptide)
peptide: RLL[pS]PLSSA
notes: Printed with J for phosphoserine; the plain residue at position 4 is serine

Biological target: T1, HLA-A*02:01 (peptide-receptive MHC class I monomer from UV-ligand exchange) (human)
T1 construct: Monomers were captured on streptavidin-coated plates
Experiment: UV-exchange ELISA (anti-b2m); exchange yield grade: + >=10%, ++ >=20%, +++ >=50%, ++++ >=75%
Text: Candidate peptides for T cell based therapies according to the present invention were further tested for their MHC binding capacity (affinity). The individual peptide-MHC complexes were produced by UV-ligand exchange, where a UV-sensitive peptide is cleaved upon UV-irradiation, and exchanged with the peptide of interest as analyzed. Only peptide candidates that can effectively bind and stabilize the peptide-receptive MHC molecules prevent dissociation of the MHC complexes. To determine the yield of the exchange reaction, an ELISA was performed based on the detection of the light chain (β2m) of stabilized MHC complexes. The assay was performed as generally described in Rodenko et al. (Rodenko et al., 2006).
96 well MAXISorp plates (NUNC) were coated over night with 2 ug/ml streptavidin in PBS at room temperature, washed 4× and blocked for 1 h at 37° C. in 2% BSA containing blocking buffer. Refolded HLA-A*02:01/MLA-001 monomers served as standards, covering the range of 15-500 ng/ml. Peptide-MHC monomers of the UV-exchange reaction were diluted 100 fold in blocking buffer. Samples were incubated for 1 h at 37° C., washed four times, incubated with 2 ug/ml HRP conjugated anti-β2m for 1 h at 37° C., washed again and detected with TMB solution that is stopped with […]. Absorption was measured at 450 nm. Candidate peptides that show a high exchange yield (preferably higher than 50%, most preferred higher than 75%) are generally preferred for a generation and production of antibodies or fragments thereof, and/or T cell receptors or fragments thereof, as they show sufficient avidity to the MHC molecules and prevent dissociation of the MHC complexes.

| Binder | peptide exchange yield [%] |
| --- | --- |
| B1 | 50 to 75 |
| B2 | 50 to 75 |
| B3 | ≥ 75 |
| B4 | 50 to 75 |
| B5 | 50 to 75 |
| B6 | 10 to 20 |
| B7 | 50 to 75 |
| B8 | 50 to 75 |
| B9 | ≥ 75 |
| B10 | 50 to 75 |
| B11 | 50 to 75 |
| B12 | 50 to 75 |
| B13 | ≥ 75 |
| B14 | 20 to 50 |
| B15 | 20 to 50 |
| B16 | 50 to 75 |
| B17 | 50 to 75 |
| B18 | 50 to 75 |
| B19 | ≥ 75 |
| B20 | ≥ 75 |
| B21 | 50 to 75 |
| B22 | 50 to 75 |

| Binder | peptide exchange yield [%] |
| --- | --- |
| B23 | 20 to 50 |
| B24 | 50 to 75 |
| B25 | 20 to 50 |
| B26 | 50 to 75 |
| B27 | 50 to 75 |
| B28 | 50 to 75 |
| B29 | 20 to 50 |
| B30 | 50 to 75 |
| B31 | ≥ 75 |
| B32 | 50 to 75 |
| B33 | ≥ 75 |
| B34 | 50 to 75 |
| B35 | 50 to 75 |
| B36 | 20 to 50 |
| B37 | 50 to 75 |
| B38 | 50 to 75 |
| B39 | 50 to 75 |
| B40 | 50 to 75 |
| B41 | 50 to 75 |
| B42 | 20 to 50 |
| B43 | 20 to 50 |
| B44 | 20 to 50 |

| Binder | peptide exchange yield [%] |
| --- | --- |
| B45 | 50 to 75 |
| B46 | 50 to 75 |
| B47 | 50 to 75 |
| B48 | 50 to 75 |
| B49 | 20 to 50 |
| B50 | 20 to 50 |
| B51 | 20 to 50 |
| B52 | 50 to 75 |
| B53 | 50 to 75 |
| B54 | 50 to 75 |
| B55 | 50 to 75 |
| B56 | 20 to 50 |
| B57 | ≥ 75 |
| B58 | ≥ 75 |
| B59 | ≥ 75 |
| B60 | 50 to 75 |
| B61 | 50 to 75 |
| B62 | 20 to 50 |
| B63 | 50 to 75 |
| B64 | 20 to 50 |
| B65 | 50 to 75 |
| B66 | 50 to 75 |
